One series has as its system rabbits. Description: Pre-clinical safety studies (acute 8 days, sub-acute 30 days) in rabbits. In kind it is in vivo. The method, then:
(§1) Various combinations of EGF were thus carried out and the combinations were subjected to thermal stability as per ICH guidelines. Pre-clinical studies for safety of the formulations with varying percentages of EGF, were conducted in both rats and rabbits, as per the approved guidelines. Briefly, acute toxicity studies were carried out for 8 days, sub-acute studies were carried on for 30 days and ocular irritation study was conducted for 7 days.

For a further series, the system named is rats. Description: Pre-clinical safety studies (acute 8 days, sub-acute 30 days) in rats. It is filed as in vivo. As for the experimental part:
as §1

In the case of `CC[C@H](C)[C@@H]1NC(=O)[C@H](Cc2ccc(O)cc2)NC(=O)CNC(=O)[C@H](C(C)C)NC(=O)[C@H](C(C)C)NC(=O)[C@@H](NC(=O)[C@H](CC(N)=O)NC(=O)[C@@H]2CSSC[C@@H]3NC(=O)[C@H](Cc4ccc(O)cc4)NC(=O)CNC(=O)[C@H](CC(=O)O)NC(=O)[C@H](Cc4c[nH]cn4)NC(=O)[C@H](CO)NC(=O)[C@H](CC(C)C)NC(=O)[C@@H]4CCCN4C(=O)[C@@H](NC(=O)[C@H](CCC(=O)O)NC(=O)[C@H](CO)NC(=O)[C@H](CC(=O)O)NC(=O)[C@H](CO)NC(=O)[C@@H](N)CC(N)=O)CSSC[C@H](NC(=O)[C@H](C(C)C)NC(=O)CNC(=O)[C@H](CC(=O)O)NC(=O)[C@H](Cc4c[nH]cn4)NC(=O)[C@H](CC(C)C)NC3=O)C(=O)N[C@@H](CCSC)C(=O)N[C@@H](Cc3ccc(O)cc3)C(=O)N[C@@H]([C@@H](C)CC)C(=O)N[C@@H](CCC(=O)O)C(=O)N[C@@H](C)C(=O)N[C@@H](CC(C)C)C(=O)N[C@@H](CC(=O)O)C(=O)N[C@@H](CCCCN)C(=O)N[C@@H](Cc3ccc(O)cc3)C(=O)N[C@@H](C)C(=O)N2)CSSC[C@@H](C(=O)N[C@@H](CCC(N)=O)C(=O)N[C@@H](Cc2ccc(O)cc2)C(=O)N[C@@H](CCCNC(=N)N)C(=O)N[C@@H](CC(=O)O)C(=O)N[C@@H](CC(C)C)C(=O)N[C@@H](CCCCN)C(=O)N[C@@H](Cc2c[nH]c3ccccc23)C(=O)N[C@@H](Cc2c[nH]c3ccccc23)C(=O)N[C@@H](CCC(=O)O)C(=O)N[C@@H](CC(C)C)C(=O)N[C@@H](CCCNC(=N)N)C(=O)O)NC(=O)[C@H](CCCNC(=N)N)NC(=O)[C@H](CCC(=O)O)NC(=O)CNC1=O` [EGF, Epidermal Growth Factor], in the series with rabbits (control vs treated), the biochemical parameters entry is “within the normal range and no abnormality was observed”; the “growth rate and food consumption” value is “normal & did not differ significantly”; the hematological parameters entry is recorded as “no observable changes”. Further, the anti-body response entry in the series with rabbits (treated groups) is listed as “no observable anti-body response”. In the series with rats (control vs treated), the biochemical parameters entry is “within the normal range and no abnormality was observed”; the “growth rate and food consumption” value was “normal & did not differ significantly”; the hematological parameters result is “no observable changes”. For the same compound, the anti-body response entry in the series on rats (treated groups) was “no observable anti-body response”.

Values taken from patent US8754043B2, “Epidermal growth factor compositions” (Bharat Biotech International Limited, priority 2005, dated 2014).
